The target in the test is T1, recombinant EF produced in our laboratory (Bacillus anthracis, UniProt P40136 34-800).
T1 sequence: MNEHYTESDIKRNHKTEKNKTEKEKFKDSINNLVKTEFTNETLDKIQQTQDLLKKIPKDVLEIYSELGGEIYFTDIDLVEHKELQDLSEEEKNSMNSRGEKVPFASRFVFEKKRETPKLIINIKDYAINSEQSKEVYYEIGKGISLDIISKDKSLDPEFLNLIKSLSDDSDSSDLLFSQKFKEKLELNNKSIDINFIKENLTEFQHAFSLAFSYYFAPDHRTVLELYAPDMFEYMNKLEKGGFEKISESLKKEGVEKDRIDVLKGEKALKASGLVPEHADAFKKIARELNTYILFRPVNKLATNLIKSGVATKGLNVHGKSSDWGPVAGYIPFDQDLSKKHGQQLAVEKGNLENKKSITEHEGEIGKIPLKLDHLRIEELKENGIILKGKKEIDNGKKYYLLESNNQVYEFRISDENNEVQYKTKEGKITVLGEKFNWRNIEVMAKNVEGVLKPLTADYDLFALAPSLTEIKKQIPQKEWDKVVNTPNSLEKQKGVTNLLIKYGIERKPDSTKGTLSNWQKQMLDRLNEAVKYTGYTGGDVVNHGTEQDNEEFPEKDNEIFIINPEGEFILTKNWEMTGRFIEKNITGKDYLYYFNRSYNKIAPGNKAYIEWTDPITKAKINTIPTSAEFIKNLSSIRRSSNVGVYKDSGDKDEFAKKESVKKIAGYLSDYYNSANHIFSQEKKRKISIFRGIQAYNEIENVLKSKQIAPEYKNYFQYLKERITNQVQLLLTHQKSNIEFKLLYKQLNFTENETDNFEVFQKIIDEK
Put plainly: SPR (Biacore X), scFv 2LF on CM5 chip, Native EF in solution; Table 2. (In SPR one partner is held on a chip, and binding of the other changes the refractive index at the surface.)

B1: scFv 2LF (scFv, V domains shown)
VH: QVQLVESGGGVVQPGRSLRLSCAASGFAFDSTAMHWVRQAPGKGLEWVAVISTGGSTYYADSVKGRFTISRDNSNNTLYLQMNSLRAEDTAVYYCAKAVRGYIGSRGPLDVWGQGTMVTVSS
VL: DIQMTQSPSSVSASVGDRVTITCRASQGISSWLAWYQQKPGKAPKLLIYKASSLQSGVPSRFSGSGSGTDFTLTISSLQPEDFATYYCQQYSTSPITFGGGTKVEIK
What is called koff is a measure of how fast the partners let go of each other. As for B1, the koff is 0.00051 s⁻¹.
